From the supplement of paper PMC9170038

test system: K4 kissing-loop RNA reporter; experiment: apparent KD of K4 kissing-loop reporter; higher = weaker reporter binding; settings: Eterna round: R107; input ligand: tryptophan 2.4 mM
Procedure: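 RNA-MaP round R107: designed RNA switches with theophylline, tryptophan, arginine or FMN aptamers are transcribed on-chip within common flanks. They are titrated with a labelled K4 kissing-loop RNA reporter in RNA-MaP buffer (100 mM Tris pH 7.5, 80 mM KCl, 4 mM MgCl2), without ligand or with the indicated ligand. Median apparent KD per design.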
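Note: bound reporter read as fluorescence of individual clusters on recovered sequencing chips by microscopy, with normalized cluster intensities fitted with a binding model.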

Row | Sequence | apparent KD of K4 kissing-loop reporter [nM]
1 | GAUCUGAACGAAAGUUCGGAUCAGUCCGAUACCAGUAUGGAUUCAUACCCUUGGCAGCGGAAAUCUGCUAUGGAGUGAUGUUCCA [Theophylline A K4 14] | 391
2 | AAGGGCUAGGCGGCCGCCACUGGUCGUGUACACAUACAGACCAGUGAUGUUGGUAUUGUAUGCGACAGGACCGGGCCUAGCCCAA [Exclusion - Tryptophan B (Freestyle 29)] | 445
3 | AGACUACUGACAGGAUAUAACAUACUAGCUCGUAUACCAAAGGUAUACGAGCACCUUCUAGUGAUGUUAGAAGGGUCGGUAGUCA [Omei KL FMN B Exc B v2] | 310
4 | CCGAUACAUUAUUCUACGGCCGAGAGCGAUACCAGCCAAAUUUAUGGCCCUUGGCAGCGCAGAUGCAGUGAUGUUGCAUACAUAC [Same State Theophylline A GF 18] | 83.2
5 | AAGCGUGUGGCGGCCGCCACUAGUCUCCAGUGAUGUUGGAGAUAUCACGUAAGUGAUAUCCGACAUAGGACCGGGCCAUAUGGAA [Same State - Tryptophan B (Freestyle 22)] | 207
6 | CCAUCGCUAUUCGAUACCAGUCAGGAGGUCUUUGGCCUCCUAUUGGAGUGAUGUUCCAUAGACCCUUGGCAGCGAAUAGUGAUGG [Theophylline B K4 15] | 510
7 | GGAUAGGAUAGAGGAUAUGGUUUAUGCAGAAAUAACUUAUUGUGUAAAUCCAUAGGGAGUGAUGUUCCAGAAGGCUGUCCUAUCG [MatMod 15 - Jieux - Exclusion - FMN B] | 180
8 | CUUUUACAGUCGGCCGCCACUGACAGCACUUCAAAGACAGUAUAAGGGUAGUGAUGUUACUUUAUCAGGACCGGGACUACCUAAC [theeternabot_sameState_KL_Trp_B_3] | 358
9 | GUACGCUCUCGAGUGAUGUUCGAUAAUCGCGAGGAUAUCGCUUUUGCGAGAAGGCGCGGAAUGAGGAAACUCGUUCUGAGUGUAC [FMN A 24] | 841
10 | UUAUAUAAGGGAAGGAGCGCGUGGGCGCAGUGAUGUUGCGCCCGACAUCACUUCAACUUAACGCAGGUAGGUCGCCCUUUUAAUA [Arginine B (Excl) V4] | 209
11 | CUCGAGUGAUGUUCGAUUAUGUAUACAGAUACCAGUGAAUUUUAACACCCUUGGCAGCUGGUAGAAUCAUUGUAAUUUUAACUAG [JR_ExcTheophyA_Sub001] | 150
12 | GCAGUGAUGUUGCGCGAGUACGGUAGAGUACGAGGACCGGUACGGCCGCCACUCGUACGGAACUGGCUAAUUUAUGGAAUGGUGA [III] | 193
13 | AGUGAAGUUAGUGAUGUGUGAGUUUGGGAAGGAGCGCCGAGGAAGGCAGGUAGGUCGCCCAGUGAUGUUGGUGUAAGGAUGAGAG [whbob_Ex_Arginine_A_2t123] | 303
14 | GAACGAGUGAUGUUCGUUGGCAUGCAUUCCGAGGAUAUGGGAUUAGCCAGAAGGCGGAAUCAGUCUUCGAGUGAUGUUCGAAGAU [Same State FMN A GF 12] | 111
15 | UGUCUUUUUUUGAUGUUUUUUGUAUAAUGGCAGGAUAUCGUAGAGGCGAGAAGGGCUUUUAUGCGUUAUGAGUGAUGUUUGUAGG [vevvmullin] | 220
16 | AGACUACCACACUGUCAAUAGACAGUGAACUAGGAUAUGCUGAUAAGCAGAAGGAGUGAUGUUCCGAGGUAGUCAAUAAAAUAAU [FmnAX 13 G66] | 289
17 | CACUUACGUAGUGAUGUUACGAUCUCUGAUACCAGACAACUCUAAGUCCCUUGGCAGCAGUCAUUUUGCUUAGUAUUUACUCAAA [JR_ExcTheophyA_Sub016] | 512
18 | CCACCUCCAGAAGGAUAUAGUGUAUCAGAUUCACUCGAGUGCCUUAAACUAAGGAGUGAUGUUCCGCUAGAAGGUCUCGUAGGCA [theeternabot_exclusion_KL_FMN_B_45] | 133
19 | UGACGUUUGGGAAGGAGCGGAAUGUAAUACGGAACGCGUGGAGAUGCAGUGAUGUUGCAGAUCCAGGUAGGUCGCCCAAGGGACG [Zainat] | 94.2
20 | UAAUUUAUGUCUUUAAUUUUAUUAUCAGAUACCAGUGAUUUAUGACACCCUUGGCAGCUGUAUUGAGUGAUGUUCUUAUAUUAAA [JR_Nu_ExcTheophyA_Sub023] | 72.5
21 | UUAAAAUAUAUAAAUAAUAAGGGAAUUGAUACCAGACAGAAUUCUGUCCCUUGGCAGCAGUGAUGUUGUUGCAAUUUAAAUAAUU [AK1 Exc Theophylline A] | 85.7
22 | AGGACGGUUAUGGAUACCAGUCCGGAACUUGUCCAUGGAGUGAUGUUCCGUCCAGCUCCGGACCCUUGGCAGCCAGACUGCUGAA [theeternabot_sameState_KL_Theo_B_41] | 198
23 | UGAUACCAGACUGAUACCAGCCAGUGAUGUUGGCUAAGCCGAAGAGGUGUCAAAGACACCGGCCCUUGGCAGCAGUCUGGUAUCU [#06 K4 Theophylline B Exclusion] | 117
24 | CGGCGGAGUGAUGUUCCACCUACUGCGGAUACCAGCUUUGCCAAAGGCCCUUGGCAGCCGCACGGCUCAGUGAUGUUGGGUCGCG [Same State Theophylline A G11] | 199
25 | CCGCUACCCUCAGGAUAUUAAAUAUUAGUGAUGUUAAUAAACCGAUGGCGAAAGCCAUCGGUAUGUUAAGAAGGGAGGGUAGCGG | 965
26 | UGACUGGAUGGAAGGAGCGCUAAACUCCUAGUGAUGUUAGGGAAAUGAGACAAAGUCUCAAGGCAGGUAGGUCGCCAUCUAGUCU [FiskerMod 16 - Jieux - Same State - Arginine B] | 177
27 | AGUAGAGCAUCAGAUACCAGACUGAACUGAUGGUAAGGAGUGAUGUUCCUUAAUCAGCUAGUCCCUUGGCAGCUGAUAAUAGUCA [Theo B SS t3] | 222
